Data as given in PMC6819594, “Screening antiproliferative drug for breast cancer from bisbenzylisoquinoline alkaloid tetrandrine and fangchinoline derivatives by targeting BLM helicase” (BMC Cancer, 2019).

Molecular target: BLM642-1290 helicase (UniProt P54132 642-1290)
Assay: fluorescence anisotropy; mitomycin C (no significant effect); 20 mM Tris pH 7.9, 25 mM NaCl, 3 mM MgCl2, 0.1 mM DTT; EMSA at room temperature 45 min; FP temperature not stated
Details: protein: recombinant; label: 3' fluorescein (FAM) on strand 2; 3' overhang 24 nt on strand 1; 21 bp duplex

BLM642-1290 helicase, sequence (P54132 642-1290): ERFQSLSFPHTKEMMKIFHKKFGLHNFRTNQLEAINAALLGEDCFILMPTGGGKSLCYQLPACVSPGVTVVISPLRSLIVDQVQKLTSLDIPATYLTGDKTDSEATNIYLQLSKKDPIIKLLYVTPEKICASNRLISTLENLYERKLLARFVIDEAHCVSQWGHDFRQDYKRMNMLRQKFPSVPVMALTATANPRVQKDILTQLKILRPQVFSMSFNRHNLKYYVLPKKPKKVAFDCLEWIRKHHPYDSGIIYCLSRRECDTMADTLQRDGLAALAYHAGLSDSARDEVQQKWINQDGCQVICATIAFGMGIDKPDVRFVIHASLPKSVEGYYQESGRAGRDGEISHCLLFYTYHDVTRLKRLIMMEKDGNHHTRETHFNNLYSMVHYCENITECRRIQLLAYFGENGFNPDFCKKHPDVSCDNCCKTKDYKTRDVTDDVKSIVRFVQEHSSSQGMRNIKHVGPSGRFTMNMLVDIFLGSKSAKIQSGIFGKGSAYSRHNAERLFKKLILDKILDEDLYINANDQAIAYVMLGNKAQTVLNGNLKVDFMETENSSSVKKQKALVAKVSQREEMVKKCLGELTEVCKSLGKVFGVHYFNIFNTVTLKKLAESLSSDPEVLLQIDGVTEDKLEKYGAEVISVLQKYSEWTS

B1: dsDNA A1A2 (dsDNA)
DNA 1: AATCCGTCGAGCAGAGTTAGGTTAGGTTAGGTTAGTTTTTTTTTT
DNA 2: CCTAACTCTGCTCGACGGATT
B1: binds.
